Common to all, as to test: In vitro cytotoxicity assay with anti-Notch ADCs (MTS)
Common to all, as to type: cell-based
What all share (settings): average of 2-4 repeats where ± S.E.M. is given

One experiment has as its system OVCAR3 (ovarian cancer). The protocol:
(§1) The effects of anti-Notch ADCs were assessed on 1) cell lines endogenously expressing Notch protein: HCC2429 (lung cancer), OVCAR3 (ovarian cancer) and MDA-MB-468 (breast cancer), 2) cell lines engineered to over-express Notch protein: MDA-MB-468/hNotch and U2OS/hNotch, and 3) a negative control cell line (SW900) using an MTS cellular viability indicator (Promega, Madison, Wis.). These cell lines were cultured with increasing concentrations of anti-Notch ADCs comprising humanized anti-Notch antibodies, hu28 and hu75, and rat-human chimeric anti-Notch antibodies, ch28 and ch75, conjugated to various linker-payload combinations of the present invention. As a specificity control for the anti-Notch-ADCs, non-targeted control-ADCs (huNeg8.8-ADCs or ch2H6-ADCs) were also tested on the same cell lines. After four days, viability of each culture was assessed. IC50 values were calculated by logistic non-linear regression and presented as ng Ab/mL. The drug antibody ratio (DAR) is also provided.

The next experiment concerns MDA-MB-468/hNotch. Here is the method:
as §1

Experiment [1] deals with MDA-MB-468 (breast cancer). Here is the method: as §1
For another experiment, the system named is HCC2429 (lung cancer). Here is the method: as §1
For the next experiment, the system named is U2OS/hNotch. Here is the method: as §1

B1: ch75-vc6780 (conjugate)
VH: QVKLLQSGAALVKPGASVKMSCKASGYAFTDYWVTWVKQSHGKSLEWIGEISPNSGGTNFNEKFKGKATLTVDKSTSTAYMELSRLTSEDSAIYYCTRGEIRYNWFAYWGQGTLVTVSS
VL: DIQMTQSPSSLSASVGDRVTITCKASQNVGNNIAWYQQKPGKAPKLLIYYASNRYTGVPSRFSGSGYGTDFTLTISSLQPEDFATYYCQRLYNSPFTFGGGTKVEIK
Consider B1, for which the “IC50 (ng Ab/mL) ± S.E.M.” value with OVCAR3 (ovarian cancer) stood at 922 ng Ab/mL; in the experiment with MDA-MB-468/hNotch, 21 ± 3.5 ng Ab/mL; in experiment [1], 6873 ± 4230.0 ng Ab/mL; with HCC2429 (lung cancer) it was 1004 ± 177.0 ng Ab/mL.

B2: ch28-vc0101: rat-human chimeric anti-Notch antibody ch28 conjugated to mcValCitPABC-#54 (conjugate)
VH: EVQLVESGGGLVQPGRSLTLSCVASGFTFRDYGMTWIRQAPGKGLTWVAYISSGSNYIYYAEAVKGRFTISRDNAKNTLYLQMTSLRSEDTALYFCTRRGPFVLDAWGQGASVTVSS
VL: DIQMTQSPSFLSASVGDRVTINCKASQSINRYLHWFQQKLGEAPKLLIYNANGLQTGIPSRFSGSGSGTDFTLTISSLQSEDVATYFCLQHNTWPDTFGAGTKLELK
With B2, the “IC50 (ng Ab/mL) ± S.E.M.” value with OVCAR3 (ovarian cancer) is 635 ng Ab/mL; in the experiment on MDA-MB-468/hNotch, 4 ± 0.5 ng Ab/mL; with U2OS/hNotch, 95 ± 18.2 ng Ab/mL; in experiment [1], 5443 ± 2630.9 ng Ab/mL; in the experiment with HCC2429 (lung cancer), 3230 ± 1116.5 ng Ab/mL.

B3: ch28-vc6780 (conjugate)
VH: B2 VH
VL: B2 VL
For B3, the “IC50 (ng Ab/mL) ± S.E.M.” value in the experiment on OVCAR3 (ovarian cancer) is 90 ± 48.5 ng Ab/mL; in the experiment on MDA-MB-468/hNotch, 3 ± 0.5 ng Ab/mL; in experiment [1], 4407 ± 2128.2 ng Ab/mL; in the experiment on HCC2429 (lung cancer), 324 ± 78.9 ng Ab/mL.
